Our source for the percent of endogenous Sept7 pulled down with PSD95 values is PMC5267388.

Where “and” joins values, the source holds several entries; their conditions need not be identical. Equal entries are not always repeated.

This test concerns the target PSD95, endogenous, from mouse brain lysate (mouse (endogenous in mouse brain)) (UniProt Q62108). Description: co-IP.

Sequence of Phosphorylated Sept7 (pT426), endogenous, from mouse brain lysate (O55131 2-436): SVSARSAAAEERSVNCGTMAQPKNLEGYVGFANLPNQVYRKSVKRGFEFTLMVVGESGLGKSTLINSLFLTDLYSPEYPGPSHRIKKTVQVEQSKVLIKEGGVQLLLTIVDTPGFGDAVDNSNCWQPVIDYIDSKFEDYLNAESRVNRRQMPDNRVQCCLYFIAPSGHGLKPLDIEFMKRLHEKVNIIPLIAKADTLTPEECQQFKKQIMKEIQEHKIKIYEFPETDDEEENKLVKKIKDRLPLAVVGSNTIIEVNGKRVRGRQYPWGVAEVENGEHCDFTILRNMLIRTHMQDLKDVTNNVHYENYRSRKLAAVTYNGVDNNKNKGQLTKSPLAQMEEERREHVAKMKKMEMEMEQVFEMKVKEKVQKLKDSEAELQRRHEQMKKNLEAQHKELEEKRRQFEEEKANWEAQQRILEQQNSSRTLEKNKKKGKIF
Sequence of PSD95, endogenous, from mouse brain lysate (mouse (endogenous in mouse brain)) (Q62108 whole entry): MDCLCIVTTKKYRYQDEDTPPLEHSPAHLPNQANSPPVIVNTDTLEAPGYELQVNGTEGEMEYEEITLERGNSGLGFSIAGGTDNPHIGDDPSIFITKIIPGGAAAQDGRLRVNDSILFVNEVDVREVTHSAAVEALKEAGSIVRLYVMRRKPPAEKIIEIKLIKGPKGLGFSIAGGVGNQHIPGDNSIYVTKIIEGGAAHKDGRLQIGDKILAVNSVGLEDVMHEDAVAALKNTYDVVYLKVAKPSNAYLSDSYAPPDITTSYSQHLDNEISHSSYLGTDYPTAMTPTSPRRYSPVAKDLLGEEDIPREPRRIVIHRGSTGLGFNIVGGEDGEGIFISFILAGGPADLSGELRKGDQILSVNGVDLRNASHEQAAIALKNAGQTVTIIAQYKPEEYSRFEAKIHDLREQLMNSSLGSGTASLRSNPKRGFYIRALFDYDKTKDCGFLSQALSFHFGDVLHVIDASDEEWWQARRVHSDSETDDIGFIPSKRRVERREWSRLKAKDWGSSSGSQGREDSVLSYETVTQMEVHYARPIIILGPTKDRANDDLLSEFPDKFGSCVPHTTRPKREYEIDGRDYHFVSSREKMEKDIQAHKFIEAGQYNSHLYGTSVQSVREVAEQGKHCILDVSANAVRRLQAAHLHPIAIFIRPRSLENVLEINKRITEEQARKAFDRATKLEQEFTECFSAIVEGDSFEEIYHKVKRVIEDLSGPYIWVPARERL

In the case of “Phosphorylated Sept7 (pT426), endogenous, from mouse brain lysate (from UniProt O55131 1-436) (natural protein)”, the percent of endogenous Sept7 pulled down with PSD95 is 10% and 15%.
